In publication PMC4865318 (Molecular Biology of the Cell, 2016):
One block for each binder: values may come before it.

How the values were obtained:
[1] = target: T1, MBP-UNC-15 (221–873) (C. elegans, UniProt P10567 221-872); assay: far-Western
T1 sequence (looked up): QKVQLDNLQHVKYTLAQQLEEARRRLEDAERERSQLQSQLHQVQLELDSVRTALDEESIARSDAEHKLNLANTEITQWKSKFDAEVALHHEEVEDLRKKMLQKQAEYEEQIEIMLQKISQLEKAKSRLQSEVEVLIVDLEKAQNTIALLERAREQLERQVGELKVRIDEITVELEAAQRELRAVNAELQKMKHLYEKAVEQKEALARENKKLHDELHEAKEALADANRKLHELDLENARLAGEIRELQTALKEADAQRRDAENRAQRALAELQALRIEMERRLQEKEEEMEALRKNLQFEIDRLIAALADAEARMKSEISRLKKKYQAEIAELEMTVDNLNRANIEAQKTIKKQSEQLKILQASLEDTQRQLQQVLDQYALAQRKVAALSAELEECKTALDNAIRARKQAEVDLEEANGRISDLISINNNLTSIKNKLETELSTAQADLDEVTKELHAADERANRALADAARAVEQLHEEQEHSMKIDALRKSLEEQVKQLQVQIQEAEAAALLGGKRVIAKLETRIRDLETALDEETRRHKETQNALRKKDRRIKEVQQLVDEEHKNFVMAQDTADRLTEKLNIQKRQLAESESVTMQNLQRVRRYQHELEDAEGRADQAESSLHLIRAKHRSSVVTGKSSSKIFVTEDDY

[2] = target: T2, MBP-UNC-15 (294–376) (C. elegans, UniProt P10567 294-376); assay: BLI
T2 sequence (looked up): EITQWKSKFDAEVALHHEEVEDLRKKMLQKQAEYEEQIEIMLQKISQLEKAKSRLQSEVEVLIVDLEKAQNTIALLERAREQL

binding result [1]: binds
B1: GST-UNC-89 (1–500) (domain or fragment, C. elegans, UniProt O01761 1-500, looked up)
chain: MASRRQKQFDRKYSSYRKFTATEDVNYSTHSSRSSYRSESLTSRTDGRGRSTSSEIIAGSESRSYPVYIAIQDYTPDKEDVEAIPLEQGQIVEVLDKKNSVRWLVRTKARPPRSGWVPGSYFETPTEFYKQRRRTREIENVSLSDEQAALVKRDQVYHELLRSEEEFVSSLRTCVDDYIKVLDDPEVPEAVKKNREELTLNIPELYNFHANVMLKGLNYYSDDPGKVGQTFVRLEKDFESHVEFYKQYADTLKLLEEPEIKRFFEGLSAKNDAGASSFVDHVKEIADRMVQYQNYFKEFVKYSARAHGSSKSIQKALELVTTIPQRVHDLEFTNNLKQHPGDTGKLGRIIRHDAFQVWEGDEPPKLRYVFLFRNKIMFTEQDASTSPPSYTHYSSIRLDKYNIRQHTTDEDTIVLQPQEPGLPSFRIKPKDFETSEYVRKAWLRDIAEEQEKYAAERDAISMTATSEMTASSVDFDMNASDQQSEFSEWSGSRKSSLFPG

Kd [2]: 1.1 µM | koff [2]: 0.00015 s⁻¹ | kon [2]: 143 M⁻¹ s⁻¹
B2: GST-UNC-89 (58–131) (domain or fragment, C. elegans, UniProt O01761 58-131, looked up)
chain: AGSESRSYPVYIAIQDYTPDKEDVEAIPLEQGQIVEVLDKKNSVRWLVRTKARPPRSGWVPGSYFETPTEFYKQ

binding result [1]: binds
B3: GST-UNC-89 (1–151) (domain or fragment, C. elegans, UniProt O01761 1-151, looked up)
chain: MASRRQKQFDRKYSSYRKFTATEDVNYSTHSSRSSYRSESLTSRTDGRGRSTSSEIIAGSESRSYPVYIAIQDYTPDKEDVEAIPLEQGQIVEVLDKKNSVRWLVRTKARPPRSGWVPGSYFETPTEFYKQRRRTREIENVSLSDEQAALV
